# Results published in IntAct's records for PubMed 28302851.
# B1: Circadian clock oscillator protein KaiB (Thermosynechococcus elongatus (strain BP-1)), Q79V61 (parent)
# chain: MAPLRKTYVLKLYVAGNTPNSVRALKTLNNILEKEFKGVYALKVIDVLKNPQLAEEDKILATPTLAKVLPPPVRRIIGDLSNREKVLIGLDLLYEEIGDQAEDDLGLE
# partner: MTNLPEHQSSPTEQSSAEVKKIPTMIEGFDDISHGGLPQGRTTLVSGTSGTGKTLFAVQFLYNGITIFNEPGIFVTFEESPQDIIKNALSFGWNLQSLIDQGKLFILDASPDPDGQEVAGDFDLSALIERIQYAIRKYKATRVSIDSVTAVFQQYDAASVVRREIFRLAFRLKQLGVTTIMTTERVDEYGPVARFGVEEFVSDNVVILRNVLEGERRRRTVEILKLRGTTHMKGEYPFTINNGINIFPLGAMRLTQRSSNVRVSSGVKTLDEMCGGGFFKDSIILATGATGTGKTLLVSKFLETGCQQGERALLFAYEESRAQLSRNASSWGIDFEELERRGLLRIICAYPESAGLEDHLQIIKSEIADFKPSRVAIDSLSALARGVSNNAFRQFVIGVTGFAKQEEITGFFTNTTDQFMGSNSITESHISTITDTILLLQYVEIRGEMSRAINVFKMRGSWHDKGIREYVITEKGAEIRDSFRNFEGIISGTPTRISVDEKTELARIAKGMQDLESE
# B2: Circadian clock oscillator protein KaiB (Thermosynechococcus elongatus (strain BP-1)), Q79V61 (parent)
# chain: B1 chain
# partner: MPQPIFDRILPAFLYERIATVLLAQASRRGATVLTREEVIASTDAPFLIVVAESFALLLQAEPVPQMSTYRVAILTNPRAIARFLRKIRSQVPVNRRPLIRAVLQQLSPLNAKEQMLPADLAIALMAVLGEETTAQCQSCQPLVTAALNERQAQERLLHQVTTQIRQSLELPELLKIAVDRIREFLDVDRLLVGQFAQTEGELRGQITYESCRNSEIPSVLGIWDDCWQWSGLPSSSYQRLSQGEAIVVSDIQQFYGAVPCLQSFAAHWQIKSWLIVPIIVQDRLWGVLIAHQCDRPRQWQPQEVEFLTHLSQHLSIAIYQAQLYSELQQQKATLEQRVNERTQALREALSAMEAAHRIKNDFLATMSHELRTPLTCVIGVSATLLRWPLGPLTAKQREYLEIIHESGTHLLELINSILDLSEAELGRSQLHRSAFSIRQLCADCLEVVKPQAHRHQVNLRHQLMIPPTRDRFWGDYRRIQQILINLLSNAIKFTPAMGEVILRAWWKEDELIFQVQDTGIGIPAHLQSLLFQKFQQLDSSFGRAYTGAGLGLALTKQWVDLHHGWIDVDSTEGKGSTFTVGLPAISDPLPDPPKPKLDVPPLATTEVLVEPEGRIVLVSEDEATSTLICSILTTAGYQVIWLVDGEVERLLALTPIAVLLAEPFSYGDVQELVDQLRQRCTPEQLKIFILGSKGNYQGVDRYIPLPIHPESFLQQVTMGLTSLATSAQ
# Variants of: B1
# Details: with kaic_thevb kaiC
row,effect of a mutation on the interaction,Variant
1,with no effect,MAPLRKTAVLKLYVAGNTPNSVRALKTLNNILEKEFKGVYALKVIDVLKNPQLAEEDKILATPTLAKVLPPPVRRIIGDLSNREKVLAGLDLLAEEIGDQAEDDLGLE [Y8A;I88A;Y94A]

# Variants of: B2
# Details: with cika_thevb cikA
row,effect of a mutation on the interaction,Variant
1,with no effect,MAPLRKTYVLKLYVAGNTPNSVRALKTLANILEKEFKGVYALKVIDVLKNPQLAEEDKILATPTLAKVLPPPVRRIIGDLSNREKVLIGLDLLYEEIGDQAEDDLGLE [N29A]
